# Data taken from a protein production outcome set (Wang et al. 2014).
# Test: label from the status in PepcDB records
row,Sequence,protein production
1,MSDTRRCVVIPAVKKNAVIPDQLVKRLAGVTLIQRAIDTAKALAPGDDIVVVTDSQEIALICERNGVRHVCNPGLHLATLDIVRELRGVLEDLARSYGHIVIYRASCPLLTADDIEDAYATFLREGADCLVTVKSVRHRVWEKRNGGLDALLSQDETEPSIYVESKALVMLDASALTRGEVRKVVPYFLNDRAIEINSYQDWWICEKLLCRKHIVFVVAGYPAIGMGHIFRALMLAHEVADHRITFLCTRESELAASNIAARDYRTRVQQGDDLAADVLSLRPDLVINDILNTDADYVGRLREAGVRVVNFEDEGPGAHLADLVVNALYEEKVDDPRFLHGHRFFCLRDEFVNGVRNDYRDPVRCVLVTFGGTDHSDFSRGTLDAIEPLCRERGITIRLVAGPGYAHKDAMQEHVERLGSPLVEFTYATNVMSRMMEGADLAICSAGRTVYELAHMRVPAIVMAHHEREGRHTFARGRNGFAYLGVMEHFDGAKLTRVFTQLLDAGNRRRLFDRQARFDFIRNKADVVRRITALLDDTPAPENA,failed
2,MSDVAATAQRQQVRQQGLILGLVTLPFRCFGVLCGSLFLCIVIECIGMALFWPDQGWRHAQAMLGHELDQLSDYFVRSALVQEPGRTAHQWIQHAYEWAFVRSGLLEWMQDASRQARAGASGRPWSLPQVLATVSMHAEGYLIAAAYTVLLFLVRLLMLCLTLPLFALAAFVGLVDGLVRRDIRRFGAGRESGFLYHRARASLVPLAVLPWVTYLALPVRVHPVVILLPSAVLLGVAVDIAAGSFKKYL,failed
3,MSDVTGDLAAVSEAKGGSDAARISEVKAWLTSQFEAVGKEVPNFEYTHRSITHLYNLATASQAKSQAATIVANDFRLKASEYRAQAARIREILESAGMSQESLPSNVVSSAQVLANVANLLNIRDTELSRILAQLEDDVVPCESQMENWKTNLEVMAVKEEQYIQQYKKYEMLLNRVGYTPKISHRELVEMAEHRKELDKMTKPVLDTLRSYQDLPPDKALAALAIEDKKRQFTAAEKYLEEVLQSALETNDE,failed
4,MSEATILVSGATGRTGGAAIDELLKSGKQVRAYVRSNDDRAAAFRKRGVEVAIGDFTGIDDIRAAMEGVTSAYFLHPIAPGIIGAAAYFAQAAKEAGVSAIVNMSQISARRESASHAAQDHWISERVFDWSGVATTHLRPTFFADWLVYPHFAKEIWAKKKIEFPFENGRHAPIATDDQGRVIAHILANPEGHGGKTYTLTGPIELNHTEIAAAMSEVLGAKIEYAPTSIDEFRNKMENVYKFPPFLTQHLVEVAQNYRDGIFSGANDAVEKITGTPALSVQQFIAQNRAVFA,failed
5,MSEEIVLKAGGKIYQGWTKIGITRSLEAMSGAFDLEMTYKFLGNDAQYKAFIEPIKQGQACTVDIGGERVITGYVDDWVPSYDESTITISVSGRDKTADLVDCSIDYPSGQFNNQTLTQIADIVCKPFGIKVIVNTDVGEPFQRIQIEQGETPHELLARLAKQRGVLLTSDTFGNLVITRASKTKAGVSLILGDNVKAARGRFSWRQRFSKFTIKAAGAAHGQWDSAGLPTVGGIKADVTDSEIGRYRPLIIVNEEVTTAEGAAKRGQWERQRSIGKSNMAEYTVTGWRIPQTGKLWNINTLVPVIDEIMGLDEEMLIASILFSEDDAGRLAVISVVRPDAMDIPAQIVKDTKLGGSTW,not failed
6,MSEFLALFSAMWKESWRDKISTFFSIAFPVMFLLIFGFLFGGSGNSVKTAVVTVDYDLSDFGDVYTSLEELKGYYHEVAVVEKERIIFIRNTTDEYYQSLLDSWEISLKNKVTRLLNGLNPVIMVKKEVLKTARELTSFDYTLTGVIAVSLLSIGLFGTVDVFSRYRERGFLKRLKATPVGNFSFVFGLISARMFYGILSTALIMLLGTLIFKASYELNVFLFLISVVSSVLSFIALGALISILFKKSDVATDAAVILFTIMMFLTGVYFPVSFLPDYLRVVSYFLPVKYGVELIRYSLGFEIFPFSRYLITAVIMFLAGLMFVFYTASLVLRKED,failed
7,MSEGSNVLVSIILVNYNGADILPDCLNSIDKFISKDNCEILLVDNASQDNSYELVAQDFPDVKIVRLPKNYGFGAGNNAGAKIAKGKFLLLLNTDTILTTNILPHLIDLMRENPDVGIIGTKLVFPDETFQISFAYTIGIKGEYKSRKLHEYAEDKSKLNSLEQEFNTIKEVDIVVGAALFIRADLFHSVGGFDEKFFIYFEDADLCRRVQNQGYKILYTPQVSLIHIRGHSMKKNANATVVEYRRSQLYYYKKHCPVWERIILRIYLFAKFLPEFLATRNPYSLEIIKLLFVIA,failed
8,MSEIDANYRALAQQVADKVAGRVIALDRLPESLLTAYRSLCDELLADRDGRFTRAWDQLPDSASSLFERCVFHGFYLANAWIQLSIVARDISELQDTDEAIAEQEYSGLYVRVAEAALKESVKKLKKARTDRSMYNSMREVMGI,not failed
9,MSEIIIQNLISPVVLFFLLGIIAATFKSDLQFPKGLTEALSMYLLIAIGIKGGIELSHYHLEAVIGPVIGTIFLGMLIPVIVLMITRLFMKVDLKNSIALAATYGSTSIVTYGAAVSFLEKSGTTYEGFMNAMVVLKESPAILVSLLLLSIIERQQAVPTTLSSKRVGIVSGHQGLIDKEVLKESFFGKSIILLLGSLIIGLVVGERAIPMVQPLFIDLYQSVLILFLLYMGLTVGERLPEVKKHGIKLILFGVLTPILLGALGVLVGTLAGLSVGGATLMGILAGSASYIAAPAALRTSVPEANPSIYLGLSLGVTFPFNLIFGIPLYFEFAKLLH,failed
10,MSELARLRQKVSDGLGLATPAADPADKTTRLANEEHASDVRAVALYVAISLSVGAFAAALIALAVPYAVTVVLACFFGAVLMGALFYALFGKSFPLPGTLPADYSDVRLRQTQNRSLIAEMQESMGDIVVIRNMNRRIVEANRVFREMTGCTSPEGLSCEEIGIAFRPGDRVHAYDVEIATPFGQRIFSWHDVVTRDLASSRLMISSIARDVTEERLALAEREDARLRAEKADAEKARLLATVSHEIRLPLSGMLGMNHLLSQTKLNQEQRNYLDGMKQSGQSLVQLVEDLLDYSTMEAGRFRLNPRAENLRRLIESIVEMLAHRAHEKGIEIASFVTPDVPDYLDFDPARLRQVLFNLIGNAVKFTQVGGVVIRARMVDGELQITVEDTGPGMSEAEQARIFGEFEQAGPLSQRSAGTGLGLAISARIVREFGGNLTVSSRRGEGSTFKLVFRPGRAPAEMPDSGRSHCLQHTNVLLIAPEGVAAAVTMEAIEAFGGKCILIHQPEDLDRLRNEPVSRTADLTDIIVDLRISALFRDALRDWPQQTIRRTLLVSPEERASTTHASFDAWLIRPLREKSLIDVLCGRLRGIERRDAINDNHPDVGFSSRVVERASGVEILVAEDDAVNARIIRAVLEKSGYIVRAVDNFQALQQSVASGASRLPNLIVSDLNMPGGEGLDVLPDLLGKLKDERNIPVIILSGDAGAGTAEILLKAGAGAVLAKPADPRRLVEEIRRLLEAKRVLSS,failed
11,MSELIAQLLVYIKGIWKYRWASVATAWTVAIAGWFFVYQMPDNYQASARIYVDTQSILRPLMAGMTVSPNPDQQITIMSRTLISRPNVERIIRMVDLDIKITDDSAREKLVTTLMKDIKLSTTGSDNIFMISYDNKDPRLAKDIVQSLLTIFVEGGLEGKKQDSASALRFIDQQIAAYEEKLVAAEAALTAFKQKNIGFLPGQGGDYYSQLVSAAEELEKARLTLLEAEQARDAVKKQITGDEPVLLFEVGEVSPQSIVNPEIDSRIQALNTNLDNLMLNFTDQHPDVVATKRLIAQLEERKVEEAKLAGTVNNRGRNYDPMMQQLNIALAESEAQVASMKARVAEYEARFERLKSMSNTVPAVEVEMQQLNRDYNVNKANYEKLLERRASAEISGELTSTSGLMSFRIVDPPTVPEAPSGPDRKKFFTLVLIGALAGGIGFAFIISQIRPTFHSQSTLRELTGLPILGTIPMVWTEQQKLKDKRKIYAFGISLLMLMACYVVLMIYVKPHGMTAA,failed
12,MSELITYHAEDGIATLTLNNGKVNAISPDVITAFNAALDRATEERAVVIITGQPGILSGGYDLKVMTRGPQEAISLVTAGSTLARRLLSHPFPVVVACPGNAVAKGAFLLLSADYRIGVEGPYKVCLNEVQIGMTMHHAGIELARDRLRRSAFHRSVINAEVFDPQGAVDAGFLDKVVPAEQLQEAAMTAARELKKLN,failed
13,MSENNSNREPQKDVGKGNNSLMRWVGRLVLFAIILAITSFLTPGFSIRGFWTFVLASVVITGLDYLVESFMKVDASPFGKGLKGFIISAVIIYLAQFLVPNMRVSIIGAILASLVIGVIDAIIPSRSM,failed
14,MSENQDELLHYRLSLRLGPVHARQRLGIERETEARVFGRDKRSFHLENLTNAPKLIRFCLKAVGLLRRAQANSLKLTTEHNTFVLPDLPSAFEGFRILHLTDLHVDMDEANLQAVIRQIAPLDYDLCVLTGDYRQRTWGPVDDALDGMARLRLAIHGDAYAVLGNHDSVRMVPALEDMGYRLLMNEMVPLERGDSRLYLAGVDDAHYYKVHNLHRAGDDIPAGGISLLLSHTPEIWREAAHAGYDLFLCGHTHGGQLCLPGGIPLTLDSDCPRRLGRGLWQVNGMQGYTSPGAGTSVLNVRLNCPPEVTIHTLTRGPLEHHHHHH,failed
15,MSEPFSVPVTVRGYETDTQGHLNQSVYLNYAEHARWSLLQAAGIRQADLVARGVGPVALETTIRFQRELLAGDEVTVTCAFEWGTGKTFRIRQLVTKADGTVAAEIEAVGGLMDLGERRLVPDPRQRFKELAARPELFGLLEHHHHHH,failed
16,MSEPIDILIAGAGIGGLSCALALHQAGIGKVTLLESSSEIRPLGVGINIQPAAVEALAELGLGPALAATAIPTHELRYIDQSGATVWSEPRGVEAGNAYPQYSIHRGELQMILLAAVRERLGQQAVRTGLGVERIEERDGRVLIGARDGHGKPQALGADVLVGADGIHSAVRAHLHPDQRPLSHGGITMWRGVTEFDRFLDGKTMIVANDEHWSRLVAYPISARHAAEGKSLVNWVCMVPSAAVGQLDNEADWNRDGRLEDVLPFFADWDLGWFDIRDLLTRNQLILQYPMVDRDPLPHWGRGRITLLGDAAHLMYPMGANGASQAILDGIELAAALARNADVAAALREYEEARRPTANKIILANREREKEEWAAASRPKTEKSAALEAITGSYRNQVERPRLEHHHHHH,not failed
17,MSEQKEDLFKPVGEAAAEVEDESIAEQNKANDGVKLTGAQDAMGHPVQEIESLCMNCGKNGTTRLLLTSIPYFREIIIMSFDCPHCGFKNCEIQPASQIQEKGSRYVLKVECREDFNRQVIKSETATCKFVELDIEIPAKRGQLTTVEGLLSEMIDDLSQDQEMRKSIDEALYKKIDDFIQKVKSYINCEPNTIPITFILDDPAGNSWIEYKPGEPQHKWSHTQYVRTDEQNVQVGIITRDQLEQRRQEQLKQLANRERNPSESVKVGSANPQFLSDATDIENFNNEVQTFRASCPSCTQECETHMKPVNIPHFKEVIIMSTVCDHCGYKSNEVKTGGAIPDKGRRITLYCDDAADLSRDILKSETCSMVIPELHLDIQEGTLGGRFTTLEGLLRQVYEELESRIFTQTSDSMDEATKARWVEFFAKLKEAIAGKVKFTVIMEDPLAGSYIQNVYAPDPDPNMTIEDYERTKEQNEDLGLSDIKVE,failed
18,MSERNLPLEYHPFPAILPKSATVAMLGTFPPTSEKRCMEFHYPNFQNDMWRIMGLLFYKNLDHFRVDQEKRFDPVRIEAFLREKGIALCSSAQTAIRLKGNASDKDLKIIDAIDMQALLTELPQLKWLFTTGGLATETLLSLLPEKSKLPKTNEWINYPYTTDRTLYLYRLPSTSRAYPLSLAKKVEAYRQFFVRVGVL,failed
19,MSETATWQPSASIPNLLKRAAIMAEIRRFFADRGVLEVETPCMSQATVTDIHLFPFETRFVGPGHSQGINLYLMTSPEYHMKRLLAAGCGPVFQLCRSFRNEEMGRHHNPEFTMLEWYRPHYDMYRLMNEVDDLLQQVLDCQPAESLSYQQAFQRHLEIDPLSADKTQLREAAAKLDLSNIADTEEDRDTLLQLLFTMGVEPHIGKEKPTFIYHFPASQASLAQISTEDHRVAERFEVYYKGIELANGFHELTDAREQQQRFEQDNRKRAARGLPQQPIDQNLLDALAAGLPDCSGVALGVDRLVMLALGAESLADVIAFTVDRA,not failed
